Experimental data reported in paper PMC4977002.

Legend:
Experiment in all cases: SPR
[1] = target: h9C12 H310A (mouse | human)
[2] = target: h9C12 H433K (mouse | human)
[3] = target: h9C12 H435A (mouse | human)
[4] = target: h9C12 I253A (mouse | human)
[5] = target: h9C12 L235A (mouse | human)
[6] = target: h9C12 N434A (mouse | human)
[7] = target: h9C12 N434D (mouse | human)
[8] = target: h9C12 N434S (mouse | human)
[9] = target: h9C12 P329A (mouse | human)
[10] = target: humanized 9C12 (h9C12), wild type, human IgG1/kappa (mouse | human)

Kd [1]: 0.262 µM
koff [1]: 0.086 s⁻¹
Kd [2]: 21.5 µM
Kd [3]: 5.53 µM
Kd [4]: 0.565 µM
koff [4]: 0.177 s⁻¹
Kd [5]: 0.226 µM
koff [5]: 0.062 s⁻¹
Kd [6]: 2 µM
Kd [7]: 4.5 µM
Kd [8]: 3.6 µM
Kd [9]: 0.22 µM
koff [9]: 0.062 s⁻¹
Kd [10]: 0.212 µM
Substance: Recombinant human TRIM21 PRYSPRY (from UniProt P19474 287-465) (domain or fragment)
